Source: IntAct's records for PubMed 19513107

B1: Calcium-binding protein 39 (Homo sapiens), Q9Y376 (parent)
chain: MPFPFGKSHKSPADIVKNLKESMAVLEKQDISDKKAEKATEEVSKNLVAMKEILYGTNEKEPQTEAVAQLAQELYNSGLLSTLVADLQLIDFEGKKDVAQIFNNILRRQIGTRTPTVEYICTQQNILFMLLKGYESPEIALNCGIMLRECIRHEPLAKIILWSEQFYDFFRYVEMSTFDIASDAFATFKDLLTRHKLLSAEFLEQHYDRFFSEYEKLLHSENYVTKRQSLKLLGELLLDRHNFTIMTKYISKPENLKLMMNLLRDKSRNIQFEAFHVFKVFVANPNKTQPILDILLKNQAKLIEFLSKFQNDRTEDEQFNDEKTYLVKQIRDLKRPAQQEA
partner: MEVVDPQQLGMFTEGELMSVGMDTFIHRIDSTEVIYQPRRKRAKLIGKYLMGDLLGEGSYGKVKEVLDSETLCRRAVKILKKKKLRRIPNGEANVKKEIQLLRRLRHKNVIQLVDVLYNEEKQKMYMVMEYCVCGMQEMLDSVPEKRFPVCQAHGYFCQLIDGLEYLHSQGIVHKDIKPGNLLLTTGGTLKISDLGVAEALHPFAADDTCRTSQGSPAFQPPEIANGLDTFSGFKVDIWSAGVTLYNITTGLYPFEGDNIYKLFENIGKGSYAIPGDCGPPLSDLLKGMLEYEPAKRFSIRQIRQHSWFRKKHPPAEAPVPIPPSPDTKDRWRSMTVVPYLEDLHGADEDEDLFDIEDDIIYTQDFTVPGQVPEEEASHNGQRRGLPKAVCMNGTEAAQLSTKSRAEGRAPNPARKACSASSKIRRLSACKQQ
B2: Calcium-binding protein 39 (Homo sapiens), Q9Y376 (parent)
chain: B1 chain
partner: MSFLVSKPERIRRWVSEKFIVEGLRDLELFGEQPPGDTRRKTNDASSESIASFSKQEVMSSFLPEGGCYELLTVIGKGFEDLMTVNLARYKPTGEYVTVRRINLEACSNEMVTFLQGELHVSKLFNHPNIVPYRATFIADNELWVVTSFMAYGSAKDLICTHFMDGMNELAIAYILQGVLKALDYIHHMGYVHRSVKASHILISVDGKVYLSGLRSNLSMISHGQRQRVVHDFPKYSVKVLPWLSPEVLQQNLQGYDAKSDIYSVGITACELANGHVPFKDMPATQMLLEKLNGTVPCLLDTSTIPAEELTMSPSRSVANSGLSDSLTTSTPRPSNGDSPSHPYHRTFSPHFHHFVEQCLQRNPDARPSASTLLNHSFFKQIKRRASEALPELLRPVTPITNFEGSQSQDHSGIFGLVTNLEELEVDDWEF

Variants of: B1
Settings: with stk11_human STK11, Q15831

| Variant | effect of a mutation on the interaction |
| --- | --- |
| MPFPFGKSHKSPADIVKNLKESMAVLEKQDISDKKAEKATEEVSKNLVAMKEILYGTNEKEPQTEAVAQLAQELYNSGLLSTLVADLQLIDFEGKKDVAQIFNNILRRQIGTRTPTVEYICTQQNILFMLLKGYESPEIALNCGIMLRECIRHEPLAKIILWSEQFYDFFRYVEMSTFDIASDAFATFKDLLTRHKLLSAEFLEQHYDRFFSEYEKLLHSENYVTKAQSLKLLGELLLDAHNFTIMTKYISKPENLKLMANLLRDKSRNIQFEAFHVFKVFVANPNKTQPILDILLKNQAKLIEFLSKFQNDRTEDEQFNDEKTYLVKQIRDLKRPAQQEA [R227A;R240A;M260A] | disrupting interaction |
| MPFPFGKSHKSPADIVKNLKESMAVLEKQDISDKKAEKATEEVSKNLVAMKEILYGTNEKEPQTEAVAQLAQELYNSGLLSTLVADLQLIDFEGKKDVAQIFNNILRRQIGTRTPTVEYICTQQNILFMLLKGYESPEIALNCGIMLRECIRHEPLAKIILWSEQFYDFFRYVEMSTFDIASDAFATFKDLLTRHKLLSAEFLEQHYDRFFSEYEKLLHSENYVTKAQSLKLLGELLLDAHNFTIMTKYISKPENLKLMMNLLRDKSRNIQFEAFHVFKVFVANPNKTQPILDILLKNQAKLIEFLSKFQNDRTEDEQFNDEKTYLVKQIRDLKRPAQQEA [R227A;R240A] | disrupting interaction |

Variants of: B2
Settings: with STRADA

| Variant | effect of a mutation on the interaction |
| --- | --- |
| MPFPFGKSHKSPADIVKNLKESMAVLEKQDISDKKAEKATEEVSKNLVAMKEILYGTNEKEPQTEAVAQLAQELYNSGLLSTLVADLQLIDFEGKKDVAQIFNNILRRQIGTRTPTVEYICTQQNILFMLLKGYESPEIALNCGIMLRECIRHEPLAKIILWSEQFYDFFRYVEMSTFDIASDAFATFKDLLTRHKLLSAEFLEQHYDRFFSEYEKLLHSENYVTKAQSLKLLGELLLDRHNFTIMTKYISKPENLKLMMNLLRDKSRNIQFEAFHVFKVFVANPNKTQPILDILLKNQAKLIEFLSKFQNDRTEDEQFNDEKTYLVKQIRDLKRPAQQEA [R227A] | disrupting interaction |

Variants of: B2
Settings: with STRADA
Remark: another data set of the same source

| Variant | effect of a mutation on the interaction |
| --- | --- |
| MPFPFGKSHKSPADIVKNLKESMAVLEKQDISDKKAEKATEEVSKNLVAMKEILYGTNEKEPQTEAVAQLAQELYNSGLLSTLVADLQLIDFEGKKDVAQIFNNILRRQIGTRTPTVEYICTQQNILFMLLKGYESPEIALNCGIMLRECIRHEPLAKIILWSEQFYDFFRYVEMSTFDIASDAFATFKDLLTRHKLLSAEFLEQHYDRFFSEYEKLLHSENYVTKAQSLKLLGELLLDRHNFTIMTKYISKPENLKLMANLLRDKSRNIQFEAFHVFKVFVANPNKTQPILDILLKNQAKLIEFLSKFQNDRTEDEQFNDEKTYLVKQIRDLKRPAQQEA [R227A;M260A] | disrupting interaction |

Variants of: B2
Settings: with STRADA
Remark: another data set of the same source

| Variant | effect of a mutation on the interaction |
| --- | --- |
| MPFPFGKSHKSPADIVKNLKESMAVLEKQDISDKKAEKATEEVSKNLVAMKEILYGTNEKEPQTEAVAQLAQELYNSGLLSTLVADLQLIDAEGKKDVAQIFNNILRRQIGTRTPTVEYICTQQNILFMLLKGYESPEIALNCGIMLRECIRHEPLAKIILWSEQFYDFFRYVEMSTFDIASDAFATFKDLLTRHKLLSAEFLEQHYDRFFSEYEKLLHSENYVTKRQSLKLLGELLLDRHNFTIMTKYISKPENLKLMMNLLRDKSRNIQFEAFHVFKVFVANPNKTQPILDILLKNQAKLIEFLSKFQNDRTEDEQFNDEKTYLVKQIRDLKRPAQQEA [F92A] | disrupting interaction |
| MPFPFGKSHKSPADIVKNLKESMAVLEKQDISDKKAEKATEEVSKNLVAMKEILYGTNEKEPQTEAVAQLAQELYNSGLLSTLVADLQLIDFAGKKDVAQIFNNILRRQIGTRTPTVEYICTQQNILFMLLKGYESPEIALNCGIMLRECIRHEPLAKIILWSEQFYDFFRYVEMSTFDIASDAFATFKDLLTRHKLLSAEFLEQHYDRFFSEYEKLLHSENYVTKRQSLKLLGELLLDRHNFTIMTKYISKPENLKLMMNLLRDKSRNIQFEAFHVFKVFVANPNKTQPILDILLKNQAKLIEFLSKFQNDRTEDEQFNDEKTYLVKQIRDLKRPAQQEA [E93A] | disrupting interaction |
| MPFPFGKSHKSPADIVKNLKESMAVLEKQDISDKKAEKATEEVSKNLVAMKEILYGTNEKEPQTEAVAQLAQELYNSGLLSTLVADLQLIDFEGKADVAQIFNNILRRQIGTRTPTVEYICTQQNILFMLLKGYESPEIALNCGIMLRECIRHEPLAKIILWSEQFYDFFRYVEMSTFDIASDAFATFKDLLTRHKLLSAEFLEQHYDRFFSEYEKLLHSENYVTKRQSLKLLGELLLDRHNFTIMTKYISKPENLKLMMNLLRDKSRNIQFEAFHVFKVFVANPNKTQPILDILLKNQAKLIEFLSKFQNDRTEDEQFNDEKTYLVKQIRDLKRPAQQEA [K96A] | disrupting interaction |
| MPFPFGKSHKSPADIVKNLKESMAVLEKQDISDKKAEKATEEVSKNLVAMKEILYGTNEKEPQTEAVAQLAQELYNSGLLSTLVADLQLIDFEGKKDVAQIFNNILARQIGTRTPTVEYICTQQNILFMLLKGYESPEIALNCGIMLRECIRHEPLAKIILWSEQFYDFFRYVEMSTFDIASDAFATFKDLLTRHKLLSAEFLEQHYDRFFSEYEKLLHSENYVTKRQSLKLLGELLLDRHNFTIMTKYISKPENLKLMMNLLRDKSRNIQFEAFHVFKVFVANPNKTQPILDILLKNQAKLIEFLSKFQNDRTEDEQFNDEKTYLVKQIRDLKRPAQQEA [R107A] | disrupting interaction |
| MPFPFGKSHKSPADIVKNLKESMAVLEKQDISDKKAEKATEEVSKNLVAMKEILYGTNEKEPQTEAVAQLAQELYNSGLLSTLVADLQLIDFEGKKDVAQIFNNILRRQIGTRTPTVEYICTQQNILFMLLKGYESPEIALNCGAMLRECIRHEPLAKIILWSEQFYDFFRYVEMSTFDIASDAFATFKDLLTRHKLLSAEFLEQHYDRFFSEYEKLLHSENYVTKRQSLKLLGELLLDRHNFTIMTKYISKPENLKLMMNLLRDKSRNIQFEAFHVFKVFVANPNKTQPILDILLKNQAKLIEFLSKFQNDRTEDEQFNDEKTYLVKQIRDLKRPAQQEA [I145A] | disrupting interaction |
